Laboratory results taken from US20220281980A1 (Bristol-Myers Squibb, published 2022).

Columns and labels:
[1] = molecular target: T1, human MICA*008 expressed on CHO cells (human, UniProt Q29983 24-331); assay: saturation binding of 125I-labelled antibody on CHO-MICA*008 cells, 12,500 cells/well (Scatchard analysis); specific = total minus binding with 100-fold unlabelled antibody; unit from the x axis 'nM Antibody'
T1 construct: also called MICA allele 008
T1 chain: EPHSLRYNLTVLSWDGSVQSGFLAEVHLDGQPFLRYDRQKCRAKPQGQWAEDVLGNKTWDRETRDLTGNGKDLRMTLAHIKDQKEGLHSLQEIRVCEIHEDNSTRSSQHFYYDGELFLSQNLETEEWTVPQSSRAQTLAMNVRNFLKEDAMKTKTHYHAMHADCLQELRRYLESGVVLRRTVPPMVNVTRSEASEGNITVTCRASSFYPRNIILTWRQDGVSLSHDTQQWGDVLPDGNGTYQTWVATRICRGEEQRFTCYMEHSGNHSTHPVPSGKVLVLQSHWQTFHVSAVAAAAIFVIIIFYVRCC
Method: (§1) Nonspecific binding was determined by binding in the presence of a titration of a 100 fold molar excess of unlabeled antibody and was subtracted from total counts per minute (CPM) to calculate specific binding. A linear standard curve of ¹²⁵I-MICA.36 concentration versus CPM was used to extrapolate specific activity, maximal nM bound ¹²⁵I-MICA.36 and thereby calculate receptor number per cell.
(§2) Specific activity of the iodinated MICA.36 was determined by plotting antibody titrations against the associated CPMs in a standard curve (FIG. 7A). The specific activity was calculated to be 164,214 CPM in 1 nM of ¹²⁵I-MICA.36. The number of receptors per cell was calculated by the following equation: (Bmax)×(Avogadro's number)×(Assay Volume)/# of cells per well.

[2] = molecular target: T2, human MICA/B endogenously expressed on 786-O cells (MICA allele *008) (human, UniProt Q29983 24-331); assay: Scatchard analysis, 125I-MICA.36 on 786-0 cells; 786-0 cells (FIG. 7F)
T2 construct: it speaks of MICA/B, so MICB may be present as well; also called 786-0
T2 chain: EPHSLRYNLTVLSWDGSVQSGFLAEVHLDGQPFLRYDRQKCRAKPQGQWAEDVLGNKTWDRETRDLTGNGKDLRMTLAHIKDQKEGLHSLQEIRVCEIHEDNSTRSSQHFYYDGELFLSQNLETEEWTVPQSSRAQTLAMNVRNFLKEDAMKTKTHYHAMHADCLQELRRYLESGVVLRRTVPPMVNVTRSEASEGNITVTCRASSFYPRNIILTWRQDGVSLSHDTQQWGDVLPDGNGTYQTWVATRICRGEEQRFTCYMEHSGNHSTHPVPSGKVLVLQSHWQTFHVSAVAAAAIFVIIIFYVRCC
Method: as §1, §2

[3] = molecular target: T2, human MICA/B endogenously expressed on …; assay: saturation binding of 125I-labelled antibody on 786-O cells, 50,000 cells/well (Scatchard analysis); unit from the x axis 'nM Antibody'
Method: as §1, §2

Kd [1]: 1.07 nM
Kd [2]: ~0.4 nM
Kd [3]: 0.356 nM
B1: MICA.36 (antibody, V domains shown)
VH: QVQLVESGGGVVQPGRSLRLSCAASGFTFSNYAMHWVRQAPGEGLEWVALIWYDGSNKFYGDSVKGRFTISRDNSKNTLYLQMNSLSAEDTAVYYCAREGSGHYWGQGTLVTVSS
VL: AIQLTQSPSSLSASVGDRVTITCRASQGISSALAWYQQKPGKVPKSLIYDASSLESGVPSRFSGSGSGTDFTLTISSLQPEDFATYYCQQFNSYPITFGQGTRLEIK
notes: it says that the name implies no specific constant region; Radioiodinated in the Scatchard assay; also called MICA.36 antibody
